From article PMC9087282, “The W-Acidic Motif of Histidine Kinase WalK Is Required for Signaling and Transcriptional Regulation in Streptococcus mutans” (Frontiers in Microbiology, 2022)

Experiments:
[1] = biological target: GST fusion protein with full-length S. aureus WalR (1–233) (Staphylococcus aureus NCTC8325) (UniProt Q2G2U6)
[2] = biological target: S. mutans WalR full-length (Streptococcus mutans UA159); assay: ITC; MicroCal iTC200, 25°C; 500 μM WalK (196–450) WT or CTT mutant in the syringe, 20 μM full-length WalR in the cell; 20 mM Tris-HCl pH 8.0, 200 mM NaCl, 20% glycerol
[3] = biological target: T1, S. aureus WalK (364–608) D605A (Staphylococcus aureus NCTC8325, UniProt Q2G2U4 364-608, D605A); assay: pull-down; GST-tagged WalR protein held on glutathione agarose beads, His-tagged WalK as prey, equal molar amounts (~3 μl of 50 μM each) in 1 ml of 20 mM Tris-HCl pH 8.0, 200 mM NaCl, 5% glycerol, 2 mM EDTA, 2 h at 4°C; SDS-PAGE stained with CBB; conditions: both partners purified
T1 construct: source: E. coli BL21 (DE3), purified (Ni-NTA, Superdex 200); not shown: His tag, N-terminal, kept
T1 sequence: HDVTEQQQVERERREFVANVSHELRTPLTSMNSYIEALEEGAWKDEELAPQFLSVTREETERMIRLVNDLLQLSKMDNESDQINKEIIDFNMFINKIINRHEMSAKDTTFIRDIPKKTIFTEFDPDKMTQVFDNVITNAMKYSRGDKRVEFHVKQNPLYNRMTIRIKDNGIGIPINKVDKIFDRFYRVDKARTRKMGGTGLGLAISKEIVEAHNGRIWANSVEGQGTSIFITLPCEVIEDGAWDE

[4] = biological target: T2, S. aureus WalK (364–608) WT (Staphylococcus aureus NCTC8325, UniProt Q2G2U4 364-608); assay: as above; conditions: both partners purified
T2 construct: cloned in pET-His; source: E. coli BL21 (DE3), purified (Ni-NTA, Superdex 200); not shown: His tag, N-terminal, kept
T2 sequence (looked up): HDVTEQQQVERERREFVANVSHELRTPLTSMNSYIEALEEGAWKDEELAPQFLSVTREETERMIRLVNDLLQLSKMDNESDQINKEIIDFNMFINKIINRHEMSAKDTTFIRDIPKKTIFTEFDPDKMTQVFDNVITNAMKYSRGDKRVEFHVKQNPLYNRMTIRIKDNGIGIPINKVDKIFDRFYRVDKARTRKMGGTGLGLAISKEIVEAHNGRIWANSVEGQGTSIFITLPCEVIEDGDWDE

WalK (196-450) = WalK (196-450) (Streptococcus mutans UA159, UniProt Q8DT64 196-450); assay: EMSA; conditions: protein: recombinant; tags: N-terminal His
WalR DBD = WalR DBD (Streptococcus mutans UA159, UniProt Q93MY4 129-235); assay: EMSA; 20 uM DNA; complex released by WalK 196-450 (W443A and delta-tail WalK compete less); conditions: protein: recombinant; chain copies: 2
WalR full-length = WalR full-length (Streptococcus mutans UA159, UniProt Q93MY4 1-235); assay: EMSA; 20 uM DNA; complex released by increasing WalK 196-450; conditions: protein: recombinant; chain copies: 2

S. aureus WalK (364–608) W606A (from UniProt Q2G2U4 364-608) (domain or fragment)
phosphotransferase activity of S. aureus WalK (364–608) with WalR (loss of phospho-WalK, at 30 min) [1]: 2 ×

S. mutans WalK (196–450) WT (domain or fragment)
Kd [2]: 1210 nM

S. aureus WalK (364–608) D607A (from UniProt Q2G2U4 364-608) (domain or fragment)
phosphotransferase activity of S. aureus WalK (364–608) with WalR (loss of phospho-WalK, at 30 min) [1]: 2 ×

B1: GST fusion protein with full-length S. aureus WalR (1–233) (natural protein, Staphylococcus aureus NCTC8325, UniProt Q2G2U6 1-233, looked up)
chain: MARKVVVVDDEKPIADILEFNLKKEGYDVYCAYDGNDAVDLIYEEEPDIVLLDIMLPGRDGMEVCREVRKKYEMPIIMLTAKDSEIDKVLGLELGADDYVTKPFSTRELIARVKANLRRHYSQPAQDTGNVTNEITIKDIVIYPDAYSIKKRGEDIELTHREFELFHYLSKHMGQVMTREHLLQTVWGYDYFGDVRTVDVTIRRLREKIEDDPSHPEYIVTRRGVGYFLQQHE
notes: cloned in pET-GST; also called GST-WalR; source: E. coli BL21 (DE3), purified (glutathione agarose, Superdex 200); not shown: GST, N-terminal, kept
binding result [3]: binds | binding result [4]: binds

B2: gtfC promoter 25-mer (dsDNA)
DNA 1: GTTTGTTATAAAAGTGTTACAATAC
DNA 2: GTATTGTAACACTTTTATAACAAAC
binding result (WalK (196-450)): no binding | binding result (WalR DBD): binds | binding result (WalR full-length): binds
